The Kd is the constant that tells how readily two partners part at equilibrium. A lower Kd goes with a tighter complex.

These results are taken from patent US20220098591.

The target of data set [1] is T1, VEGF-A121 (Homo sapiens) (UniProt P15692).
T1 sequence: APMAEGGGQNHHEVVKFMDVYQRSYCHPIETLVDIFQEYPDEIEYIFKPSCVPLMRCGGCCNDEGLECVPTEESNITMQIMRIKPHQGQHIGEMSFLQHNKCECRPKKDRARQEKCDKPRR
Conditions: all G 2'-F; A,C,U 2'-OMe; Sp3 (1,3-propanediol) joins the two parts (position 9); 5' C6NH2; 3' idT; direct TR-FRET, RT.

In data set [2] the test system is T2, VEGF-A165 (Homo sapiens).
T2 sequence: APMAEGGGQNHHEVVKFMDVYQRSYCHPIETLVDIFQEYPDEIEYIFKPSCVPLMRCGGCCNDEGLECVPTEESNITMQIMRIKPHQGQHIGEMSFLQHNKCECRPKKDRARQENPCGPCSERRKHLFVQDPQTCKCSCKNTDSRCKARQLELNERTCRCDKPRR
Conditions: all G 2'-F; A,C,U 2'-OMe; Sp3 (1,3-propanediol) joins the two parts (position 9); 5' C6NH2; 3' idT; direct TR-FRET, RT. Background: In TR-FRET formats the signal depends on donor and acceptor labels being close together.

“AGGCCGCCCCGCGCGGAGGGGUUUCAUUAUCCCGUUUGGCGGCUU [Aptamer 47]”: the Kd in data set [1] is 11 nM; in data set [2], 2.1 nM.
